This data set deals with the molecule itself. Kind of data set: SEC; dimer/monomer state of the purified protein before UV irradiation; 150 mM NaCl, 25 mM Tris-HCl, pH 8.0. (Size exclusion chromatography separates by hydrodynamic size, large species first.)

Experimental findings from article PMC8748919, “Dynamics and mechanism of dimer dissociation of photoreceptor UVR8” (Nature Communications, 2022) are described below.

B1: UVR8 W250 single-Trp mutant (receptor, Arabidopsis thaliana, UniProt Q9FN03 1-440, looked up)
chain: MAEDMAADEVTAPPRKVLIISAGASHSVALLSGDIVCSWGRGEDGQLGHGDAEDRPSPTQLSALDGHQIVSVTCGADHTVAYSQSGMEVYSWGWGDFGRLGHGNSSDLFTPLPIKALHGIRIKQIACGDSHCLAVTMEGEVQSWGRNQNGQLGLGDTEDSLVPQKIQAFEGIRIKMVAAGAEHTAAVTEDGDLYGWGWGRYGNLGLGDRTDRLVPERVTSTGGEKMSMVACGWRHTISVSYSGALYTYGFSKYGQLGHGDLEDHLIPHKLEALSNSFISQISGGWRHTMALTSDGKLYGWGWNKFGQVGVGNNLDQCSPVQVRFPDDQKVVQVSCGWRHTLAVTERNNVFAWGRGTNGQLGIGESVDRNFPKIIEALSVDGASGQHIESSNIDPSSGKSWVSPAERYAVVPDETGLTDGSSKGNGGDISVPQTDVKRVRI
notes: UVR8, Arabidopsis thaliana; mutant plasmid built on the wild-type plasmid; also called W250F; source: E. coli BL21-DE3, purified (Ni-Sepharose, Source-15Q)
As to B1, the binding result is “binds”.

B2: UVR8 R286 mutated to lysine (K) (receptor, Arabidopsis thaliana, UniProt Q9FN03 1-440, looked up)
chain: MAEDMAADEVTAPPRKVLIISAGASHSVALLSGDIVCSWGRGEDGQLGHGDAEDRPSPTQLSALDGHQIVSVTCGADHTVAYSQSGMEVYSWGWGDFGRLGHGNSSDLFTPLPIKALHGIRIKQIACGDSHCLAVTMEGEVQSWGRNQNGQLGLGDTEDSLVPQKIQAFEGIRIKMVAAGAEHTAAVTEDGDLYGWGWGRYGNLGLGDRTDRLVPERVTSTGGEKMSMVACGWRHTISVSYSGALYTYGWSKYGQLGHGDLEDHLIPHKLEALSNSFISQISGGWKHTMALTSDGKLYGWGWNKFGQVGVGNNLDQCSPVQVRFPDDQKVVQVSCGWRHTLAVTERNNVFAWGRGTNGQLGIGESVDRNFPKIIEALSVDGASGQHIESSNIDPSSGKSWVSPAERYAVVPDETGLTDGSSKGNGGDISVPQTDVKRVRI
notes: UVR8, Arabidopsis thaliana; mutant plasmid built on the wild-type plasmid; also called R286K; source: E. coli BL21-DE3, purified (Ni-Sepharose, Source-15Q)
For the protein B2, the binding result is “binds”.

B3: UVR8 W302 single-Trp mutant (receptor, Arabidopsis thaliana, UniProt Q9FN03 1-440, looked up)
chain: MAEDMAADEVTAPPRKVLIISAGASHSVALLSGDIVCSWGRGEDGQLGHGDAEDRPSPTQLSALDGHQIVSVTCGADHTVAYSQSGMEVYSWGWGDFGRLGHGNSSDLFTPLPIKALHGIRIKQIACGDSHCLAVTMEGEVQSWGRNQNGQLGLGDTEDSLVPQKIQAFEGIRIKMVAAGAEHTAAVTEDGDLYGWGWGRYGNLGLGDRTDRLVPERVTSTGGEKMSMVACGWRHTISVSYSGALYTYGWSKYGQLGHGDLEDHLIPHKLEALSNSFISQISGGWRHTMALTSDGKLYGWGFNKFGQVGVGNNLDQCSPVQVRFPDDQKVVQVSCGWRHTLAVTERNNVFAWGRGTNGQLGIGESVDRNFPKIIEALSVDGASGQHIESSNIDPSSGKSWVSPAERYAVVPDETGLTDGSSKGNGGDISVPQTDVKRVRI
notes: UVR8, Arabidopsis thaliana; mutant plasmid built on the wild-type plasmid; also called W302F; source: E. coli BL21-DE3, purified (Ni-Sepharose, Source-15Q)
Turning to B3, the binding result is “binds”.

B4: UVR8 W39 single-Trp mutant (receptor, Arabidopsis thaliana, UniProt Q9FN03 1-440, looked up)
chain: MAEDMAADEVTAPPRKVLIISAGASHSVALLSGDIVCSFGRGEDGQLGHGDAEDRPSPTQLSALDGHQIVSVTCGADHTVAYSQSGMEVYSWGWGDFGRLGHGNSSDLFTPLPIKALHGIRIKQIACGDSHCLAVTMEGEVQSWGRNQNGQLGLGDTEDSLVPQKIQAFEGIRIKMVAAGAEHTAAVTEDGDLYGWGWGRYGNLGLGDRTDRLVPERVTSTGGEKMSMVACGWRHTISVSYSGALYTYGWSKYGQLGHGDLEDHLIPHKLEALSNSFISQISGGWRHTMALTSDGKLYGWGWNKFGQVGVGNNLDQCSPVQVRFPDDQKVVQVSCGWRHTLAVTERNNVFAWGRGTNGQLGIGESVDRNFPKIIEALSVDGASGQHIESSNIDPSSGKSWVSPAERYAVVPDETGLTDGSSKGNGGDISVPQTDVKRVRI
notes: UVR8, Arabidopsis thaliana; mutant plasmid built on the wild-type plasmid; also called W39F; source: E. coli BL21-DE3, purified (Ni-Sepharose, Source-15Q)
As for B4, the binding result was “binds”.

B5: UVR8 D129 mutated to positive (K) (receptor, Arabidopsis thaliana, UniProt Q9FN03 1-440, looked up)
chain: MAEDMAADEVTAPPRKVLIISAGASHSVALLSGDIVCSWGRGEDGQLGHGDAEDRPSPTQLSALDGHQIVSVTCGADHTVAYSQSGMEVYSWGWGDFGRLGHGNSSDLFTPLPIKALHGIRIKQIACGKSHCLAVTMEGEVQSWGRNQNGQLGLGDTEDSLVPQKIQAFEGIRIKMVAAGAEHTAAVTEDGDLYGWGWGRYGNLGLGDRTDRLVPERVTSTGGEKMSMVACGWRHTISVSYSGALYTYGWSKYGQLGHGDLEDHLIPHKLEALSNSFISQISGGWRHTMALTSDGKLYGWGWNKFGQVGVGNNLDQCSPVQVRFPDDQKVVQVSCGWRHTLAVTERNNVFAWGRGTNGQLGIGESVDRNFPKIIEALSVDGASGQHIESSNIDPSSGKSWVSPAERYAVVPDETGLTDGSSKGNGGDISVPQTDVKRVRI
notes: UVR8, Arabidopsis thaliana; mutant plasmid built on the wild-type plasmid; also called D129K; source: E. coli BL21-DE3, purified (Ni-Sepharose, Source-15Q)
As for B5, the binding result was “binds”.

B6: UVR8 W94/337F (receptor, Arabidopsis thaliana, UniProt Q9FN03 1-440, looked up)
chain: MAEDMAADEVTAPPRKVLIISAGASHSVALLSGDIVCSWGRGEDGQLGHGDAEDRPSPTQLSALDGHQIVSVTCGADHTVAYSQSGMEVYSWGFGDFGRLGHGNSSDLFTPLPIKALHGIRIKQIACGDSHCLAVTMEGEVQSWGRNQNGQLGLGDTEDSLVPQKIQAFEGIRIKMVAAGAEHTAAVTEDGDLYGWGWGRYGNLGLGDRTDRLVPERVTSTGGEKMSMVACGWRHTISVSYSGALYTYGWSKYGQLGHGDLEDHLIPHKLEALSNSFISQISGGWRHTMALTSDGKLYGWGWNKFGQVGVGNNLDQCSPVQVRFPDDQKVVQVSCGFRHTLAVTERNNVFAWGRGTNGQLGIGESVDRNFPKIIEALSVDGASGQHIESSNIDPSSGKSWVSPAERYAVVPDETGLTDGSSKGNGGDISVPQTDVKRVRI
notes: UVR8, Arabidopsis thaliana; mutant plasmid built on the wild-type plasmid; source: E. coli BL21-DE3, purified (Ni-Sepharose, Source-15Q)
Turning to B6, the binding result is listed as “binds”.

B7: UVR8 W285K/W233D (receptor, Arabidopsis thaliana, UniProt Q9FN03 1-440, looked up)
chain: MAEDMAADEVTAPPRKVLIISAGASHSVALLSGDIVCSWGRGEDGQLGHGDAEDRPSPTQLSALDGHQIVSVTCGADHTVAYSQSGMEVYSWGWGDFGRLGHGNSSDLFTPLPIKALHGIRIKQIACGDSHCLAVTMEGEVQSWGRNQNGQLGLGDTEDSLVPQKIQAFEGIRIKMVAAGAEHTAAVTEDGDLYGWGWGRYGNLGLGDRTDRLVPERVTSTGGEKMSMVACGDRHTISVSYSGALYTYGWSKYGQLGHGDLEDHLIPHKLEALSNSFISQISGGKRHTMALTSDGKLYGWGWNKFGQVGVGNNLDQCSPVQVRFPDDQKVVQVSCGWRHTLAVTERNNVFAWGRGTNGQLGIGESVDRNFPKIIEALSVDGASGQHIESSNIDPSSGKSWVSPAERYAVVPDETGLTDGSSKGNGGDISVPQTDVKRVRI
notes: as for B6
As for B7, the binding result was “binds”.

B8: UVR8 W285D/W233K (receptor, Arabidopsis thaliana, UniProt Q9FN03 1-440, looked up)
chain: MAEDMAADEVTAPPRKVLIISAGASHSVALLSGDIVCSWGRGEDGQLGHGDAEDRPSPTQLSALDGHQIVSVTCGADHTVAYSQSGMEVYSWGWGDFGRLGHGNSSDLFTPLPIKALHGIRIKQIACGDSHCLAVTMEGEVQSWGRNQNGQLGLGDTEDSLVPQKIQAFEGIRIKMVAAGAEHTAAVTEDGDLYGWGWGRYGNLGLGDRTDRLVPERVTSTGGEKMSMVACGKRHTISVSYSGALYTYGWSKYGQLGHGDLEDHLIPHKLEALSNSFISQISGGDRHTMALTSDGKLYGWGWNKFGQVGVGNNLDQCSPVQVRFPDDQKVVQVSCGWRHTLAVTERNNVFAWGRGTNGQLGIGESVDRNFPKIIEALSVDGASGQHIESSNIDPSSGKSWVSPAERYAVVPDETGLTDGSSKGNGGDISVPQTDVKRVRI
notes: as for B6
Consider B8, for which the binding result is recorded as “binds”.

B9: UVR8 R338 mutated to lysine (K) (receptor, Arabidopsis thaliana, UniProt Q9FN03 1-440, looked up)
chain: MAEDMAADEVTAPPRKVLIISAGASHSVALLSGDIVCSWGRGEDGQLGHGDAEDRPSPTQLSALDGHQIVSVTCGADHTVAYSQSGMEVYSWGWGDFGRLGHGNSSDLFTPLPIKALHGIRIKQIACGDSHCLAVTMEGEVQSWGRNQNGQLGLGDTEDSLVPQKIQAFEGIRIKMVAAGAEHTAAVTEDGDLYGWGWGRYGNLGLGDRTDRLVPERVTSTGGEKMSMVACGWRHTISVSYSGALYTYGWSKYGQLGHGDLEDHLIPHKLEALSNSFISQISGGWRHTMALTSDGKLYGWGWNKFGQVGVGNNLDQCSPVQVRFPDDQKVVQVSCGWKHTLAVTERNNVFAWGRGTNGQLGIGESVDRNFPKIIEALSVDGASGQHIESSNIDPSSGKSWVSPAERYAVVPDETGLTDGSSKGNGGDISVPQTDVKRVRI
notes: UVR8, Arabidopsis thaliana; mutant plasmid built on the wild-type plasmid; also called R338K; source: E. coli BL21-DE3, purified (Ni-Sepharose, Source-15Q)
On to B9, for which the binding result was “binds”.

B10: UVR8 W285/233/94/337G (receptor, Arabidopsis thaliana, UniProt Q9FN03 1-440, looked up)
chain: MAEDMAADEVTAPPRKVLIISAGASHSVALLSGDIVCSWGRGEDGQLGHGDAEDRPSPTQLSALDGHQIVSVTCGADHTVAYSQSGMEVYSWGGGDFGRLGHGNSSDLFTPLPIKALHGIRIKQIACGDSHCLAVTMEGEVQSWGRNQNGQLGLGDTEDSLVPQKIQAFEGIRIKMVAAGAEHTAAVTEDGDLYGWGWGRYGNLGLGDRTDRLVPERVTSTGGEKMSMVACGGRHTISVSYSGALYTYGWSKYGQLGHGDLEDHLIPHKLEALSNSFISQISGGGRHTMALTSDGKLYGWGWNKFGQVGVGNNLDQCSPVQVRFPDDQKVVQVSCGGRHTLAVTERNNVFAWGRGTNGQLGIGESVDRNFPKIIEALSVDGASGQHIESSNIDPSSGKSWVSPAERYAVVPDETGLTDGSSKGNGGDISVPQTDVKRVRI
notes: as for B6
With B10, the binding result is recorded as “binds”.

B11: UVR8 R234 mutated to neutral (Q) (receptor, Arabidopsis thaliana, UniProt Q9FN03 1-440, looked up)
chain: MAEDMAADEVTAPPRKVLIISAGASHSVALLSGDIVCSWGRGEDGQLGHGDAEDRPSPTQLSALDGHQIVSVTCGADHTVAYSQSGMEVYSWGWGDFGRLGHGNSSDLFTPLPIKALHGIRIKQIACGDSHCLAVTMEGEVQSWGRNQNGQLGLGDTEDSLVPQKIQAFEGIRIKMVAAGAEHTAAVTEDGDLYGWGWGRYGNLGLGDRTDRLVPERVTSTGGEKMSMVACGWQHTISVSYSGALYTYGWSKYGQLGHGDLEDHLIPHKLEALSNSFISQISGGWRHTMALTSDGKLYGWGWNKFGQVGVGNNLDQCSPVQVRFPDDQKVVQVSCGWRHTLAVTERNNVFAWGRGTNGQLGIGESVDRNFPKIIEALSVDGASGQHIESSNIDPSSGKSWVSPAERYAVVPDETGLTDGSSKGNGGDISVPQTDVKRVRI
notes: UVR8, Arabidopsis thaliana; mutant plasmid built on the wild-type plasmid; also called R234Q; source: E. coli BL21-DE3, purified (Ni-Sepharose, Source-15Q)
Consider B11, for which the binding result was “binds”.

B12: UVR8 D129 mutated to neutral (N) (receptor, Arabidopsis thaliana, UniProt Q9FN03 1-440, looked up)
chain: MAEDMAADEVTAPPRKVLIISAGASHSVALLSGDIVCSWGRGEDGQLGHGDAEDRPSPTQLSALDGHQIVSVTCGADHTVAYSQSGMEVYSWGWGDFGRLGHGNSSDLFTPLPIKALHGIRIKQIACGNSHCLAVTMEGEVQSWGRNQNGQLGLGDTEDSLVPQKIQAFEGIRIKMVAAGAEHTAAVTEDGDLYGWGWGRYGNLGLGDRTDRLVPERVTSTGGEKMSMVACGWRHTISVSYSGALYTYGWSKYGQLGHGDLEDHLIPHKLEALSNSFISQISGGWRHTMALTSDGKLYGWGWNKFGQVGVGNNLDQCSPVQVRFPDDQKVVQVSCGWRHTLAVTERNNVFAWGRGTNGQLGIGESVDRNFPKIIEALSVDGASGQHIESSNIDPSSGKSWVSPAERYAVVPDETGLTDGSSKGNGGDISVPQTDVKRVRI
notes: UVR8, Arabidopsis thaliana; mutant plasmid built on the wild-type plasmid; also called D129N; source: E. coli BL21-DE3, purified (Ni-Sepharose, Source-15Q)
B12: the binding result is given as “binds”.
